Experimental data: the DeepSol protein solubility set

Assay: soluble on expression in E. coli; label from the status in PepcDB or PDB records

Row | Sequence | soluble on expression in E. coli
1 | TALIASGLAPQPFYFYGFLPRQNKERTQAIEKLAAREETWILYESPHRLKETLKAIIKITGNDRKMVLCRELTKRFEEFLRGTVEDALNWATDEEVRGEFCIIIEGNANP | not soluble
2 | TAVEPLALIRADGPTLPARGMHKPALCIIAQGRKEVQLAEERYIYDPLHYLVVSVTLPLAGQVIDASPDAPYLCVRLDIDPAEITQLISDAGPMEVASRRGDRGLYVDRIDASLLDAVLRLIHLLDSPRDIPMLAPLILREIFYRLLRSGQGQRL | not soluble
3 | TDAFFFAGFLPNAAAARKTRLETLRGVPGTLVFYESPKRLAASLRDMAEVLGGERPAALCRELTKKFEETRRDTLAGLAEALAEAPVKGEVVLLVDRARSG | not soluble
4 | TDLDAVRIKVDTVNAKPGDTVRIPVRFSGIPSKGIANCDFVYSYDPNVLEIIEIEPGELIVDPNPTKSFDTAVYPDRKMIVFLFAEDSGTGAYAITEDGVFATIVAKVKSGAPNGLSVIKFVEVGGFANNDLVEQKTQFFDGGVNVG | soluble
5 | TDPDCDRVGIVVKDSSGEYVVLNGNQVGSLLVRYILESLVEENKLPKNNPTIIKTIVTSELGAKIAKAYNVDCLNTLTGFKFIGEKIKAFEESNDRSFIMGYEESYGYLIGTHARDKDGVVSSLMICEMAAYYSSKGMNLYEALIDTYNKFGY | not soluble
6 | TEEPDFTALCQKLKIPDHVRERAWLTWEKVSSVDGVLGGYIQKKKELWGICIFIAAVDLDEMSFTFTELQKNIEISVHKFFNLLKEIDTSTKVDNAMSRLLKKYDVLFALFSKLERTCELIYLTQPSSSISTEINSALVLKVSWITFLLAKGEVLQMEDDLVISFQLMLCVLDYFIKLSPPMLLKEPYKTAVIPINGSPRTPRRGQNRSARIAKQLENDTRIIEVLCKEHECNIDEVKNVYFKNFIPFMNSLGLVTSNGLPEVENLSKRYEEIYLKNKDLDARLFLDHDKTLQTDSIDSFETQR | soluble
7 | TGEKTILKLKRSCLKPELRRIKAIVGLGLSGFTMAITNCTVQIMCNATLQAYGGDLYVGVMTVVNSVREVASLPVSGITQSAQPVLGFNYGAGEYGRVKKA | not soluble
8 | TGFNYFQYNITNSLNASYGPSQEGNQTDFYAGAVQLQQTVVQLDVDRGLEVGLASPLNVAAGALFRADNYQLKAGEEASWAGFENPPWGINQNGGTPAPGAQVFPGFRPEQEVDETRTNIGTYVDLQADLIDPLQVNIAGRFENYSDFGSTVNGKVALRFEPVSQLAFRGTAQTGYRAPNQAQKFFSKVSTTFIDNQPVQTGIFRINSDVGNALGIPDLE | not soluble
9 | TGMSREEVESLIQEVLEVYPEKARKDRNKHLAVNDPAVTQSKKCIISNKKSQPGLMTIRGCAYAGSKGIVWGPIKDMIHISHGPVGCGQYSRAGRRNYYIGTTGVNAFVTMNFTSDFQEKDIVFGGDKKLAKLIDEVETLFPLNKGISVQSECPIGLIGDDIESVSKVKGAELSKTIVPVRCEGFRGVSQSLGHHIANDAVRDWVLGKRDEDTTFASTPYDVAIIGDYNIGGDAWSSRILLEEMGLRCVAQWSGDGSISEIELTPKVKLNLVHCYRSMNYISRHMEEKYGIPWMEYNFFGPTKTIESLRAIAAKFDESIQKKCEEVIAKYKPEWEAVVAKYRPRLEGKRVMLYIGGLRPRHVIGAYEDLGMEVVGTGYEFAHNDDYDRTMKEMGDSTLLYDDVTGYEFEEFVKRIKPDLIGSGIKEKFIFQKMGIPFREMHSWDYSGPYHGFDGFAIFARDMDMTLNNPCWKKLQAPWEASEGAEKVAASA | soluble
10 | THSQLDQLLTGLVDRVAEVDHAVVLSEDGLVVSKSTGFLRDDAERLAATASGLMSLSKGVSMDFRRGPVRQALIEMGKGYLILTAAGPGAHLVVLTRQGADVGVVAYQMNMLVKKIGEHLSAPPRG | soluble
11 | TLDYNIQQQAYNLLGDNKGSVVVLNPKTGEILAMVSKPSYDPNDDALKASWAALNSNPDRPLLNRAVSGLYPPGSTFKTVTAISALENISGIQNETFNDPGQLVFNSTESLRDFGGESFGDIGFKHAYVVSSNVVFGKIGLQLGNNNLRQTAESFYFNKNIPCDGIVIDKSKFPTLKSYEKGNMAQSAIGQASVLATPIQMALVASTVANDGVMMKPHVVNEILSPNGDKIKSIEPESIGNIVSKENAATMKDFMRNVVEDGTGVNAAVEGIQVAGKTGTADHKVNGKDATPHSWFIGFAPYDNPQVAIAVIVEDGGQGGKAAAGIASKVIQTALQK | not soluble
12 | TLTVQARQLLSGIVQQQNDLLRAIEAQQHLLQLTVWGIKQLQARSGGRGGWMEWDREINNYTSLIHSLIEESQNQQEKNEQELLEL | soluble
13 | TPDRHQFPGLANKTYFNFGGQGILPTVALEAITAMYGYLQENGPFSIAANQHIQQLIAQLRQALAETFNVDPNTITITDNVTTGCDIVLWGLDWHQGDEILLTDCEHPGIIAIVQAIAARFGITYRFFPVAATLNQGDAAAVLANHLGPKTRLVILSHLLWNTGQVLPLAEIMAVCRRHQGNYPVRVLVDGAQSAGSLPLDFSRLEVDYYAFTGHAWFAGPAGVGGLYIHGDCLGEINPTYVGWRSITYGAKGEPTGWAEGGKRFEVATSAYPQYAGLLAALQLHQRQGTAEERYQAICQRSEFLWRGLNQLPHVHCLATSAPQAGLVSFTVDSPLGHRAIVQKLEEQRIYLRTIADPDCIRACCHYITDEEEINHLLARLADFGP | soluble
14 | TPEHRAVAREVAAETFVLLKNENHLLPLEEKGKIALIGPMADARNNMCGMWSMTCTPSRHGTLLEGIRSAVGDKAEILYAKGSNVYYDAEMEKGAVGIRPLERGNDQQLLAEALRTAARADVIVAAVGECAEMSGESPSRTNLEIPDAQQDLLKALVKTGKPVVLLLFTGRPLILNWESEHIPSILNVWFGGSETGDAVADVLFGKAVPCGKLTTTFPRSVGQLPLFYNHLNTGRPDPDNRVFNRYASNYLDESNEPLYPFGYGLSYTDF | not soluble
15 | TPHLVNLNEDPLMSECLLYYIKDGITRVGQADAERRQDIVLSGAHIKEEHCIFRSERSNSGEVIVTLEPCERSETYVNGKRVSQPVQLRSGNRIIMGKNHVFRFNHPEQARAEREKT | soluble
16 | TQNPIANPLAAKKRRDHVLERLLEEHYINEEQYQNAVNQPITAKYHGTNIKVKAPYVAEMIRQSLYDNFGPEAYTKGY | not soluble
17 | TSRNYLLLTPGPLTTSRTVKEAMLFDSCTWDDDYNIGVVEQIRQQLTALATASEGYTSVLLQGSGSYAVEAVLGSALGPQDKVLIVSNGAYGARMVEMAGLMGIAHHAYDCGEVARPDVQAIDAILNADPTISHIAMVHSETTTGMLNPIDEVGALAHRYGKTYIVDAMSSFGGIPMDIAALHIDYLISSANKCIQGVPGFAFVIAREQKLAACKGHSRSLSLDLYAQWRCMEDNHGKWRFTSPTHTVLAFAQALKELAKEGGVAARHQRYQQNQRSLVAGMRALGFNTLLDDELHSPIITAFYSPEDPQYRFSEFYRRLKEQGFVIYPGKVSQSDCFRIGNIGEVYAADITALLTAIRTAMYWTK | soluble
18 | TTATRQEVLGLYRSIFRLARKWQATSGQMEDTIKEKQYILNEARTLFRKNKNLTDTDLIKQCIDECTARIEIGLHY | soluble
19 | TTCDELISLCDEHHMSVADVVWANETAMRSAVQVRSDLDTVWHVMRRCVQHGCNTNQTVLPGGLDVPRRAPKMYARLASNSDVLKRDGRRSDAVLESSDAAWVDLFALAVSEENAAGGRIVTAPTNGAAGVIPAVLHYYWHFVDHADEDGVVTFLLTAGAIGYLFKRNASISGAEVGCQGEVGTACSMAAAGLCAVMGGTPHQVENAAEIGIEHNLGLTCDPVGGLVQIPCIERNAMAANTAINAVRMAMLGDGTHIVSLDQAIKTMKDTGEDMMAKYKETSKGGLAVN | not soluble
20 | TTILVVRRNGQTVMGGDGQVTFGSTVLKGNARKVRKLGEGKVLAGFAGSVADAMTLFDRFEAKLREWGGNLTKAAVELAKDWRTDRVLRRLEALLLVADKENIFIISGNGEVIQPDDDAAAIGSGGPYALAAAKALLRNTDLSAREIVEKAMTIAGEICIYTNQNIVIEEV | soluble
21 | TTNWLNYRAGSVAYEQAAEPLELLTEARIHAQRARTDETLALVWRQSLENSNHTFSTTLKRVDKALSKPGLDPAEVAAARNAMNTWRASHEELTNFLNSGRYEEALKLTTEGPSAFTDLDAALDSLIDSTRVRLRTEIRGVDTTQVN | not soluble
22 | TTYKHSLQDLTAQRSLGAIPFAGRYRLIDFMLSNMVNADIRSVAIFPKYRYRSLMDHLGAGKEWDLHRKKDGLFFFPSPHLHHEYDEFGSFRQFSDHLDYFHRSTQQYAVISNSHTVCNIQFQYVLKRHQEVGCDVTEVFQDGQSLQIYIMSTTLLKDLIYGHSEKGYKTIQEAVEKESSALTICPYEYSGYAAVIDSVEKYYTHSMELIQPRFWQQVFLPQQPIYTKVKDEPPTKYGKHSTVKNSLVANGCVLEGEVENCILFRAVHVGKGTKLKNCIIMQKTQIGEDCLLEQVISDKDVKIGKATEAAGTAEQPLVLRKGLVQGE | not soluble
23 | TWTYILRQGDLPPGEMQRYEGGPEPVMVCNVDGEFFAVQDTCTHGDWALSDGYLDGDIVECTLHFGKFCVRTGKVKALPACKPIKVFPIKVEGDEVHVDLDNGELK | soluble
24 | VAADAYLVRRGQETKRGSGKGGASKGTPRGLSVIAGYPWFADWGRDAMIALSGLTLVTGRFEDARELLLTFLGQRRRGLIPNHFDESGQGAGYNTVARPLWLAVALERYARTTGDALFVRQALPMLRELLGSLVQGTDYGIGMDPADALLRAGEPGVQLTWMDVKIHDWVVTPRHGKPVEIQALWLAALGAELRLSQALGEPPRYAAVLERAHHSFKAQFWNHAADLTAAPTATLLGLGQLGSSLGGALSDALDGDFVLDDEPRRDTSSDALLTVGGRPGSGPVQSTTGASELGVGHRPGAAPAQPAVLADVIQPSGEQDLSVRPNAVIALALADTPVVDEQLDAVLAQTERELLTPVGLHTLSPHDPRYLGNYGGPQLLRDAAYHQGTVWPWPLASYVELLLSRGELNRARAALAGLTGHVWEAGIGHVSEVFSGDALTPGGCPFQAWSVAELLR | not soluble
25 | VADRLIVKGAREHNLRSVDLDLPRDALIVFTGLSGSGKSSLAFDTIFAEGQRRYVESLSAYARQFLGQMDKPDVDFIEGLSPAVSIDQKSTNRNPRSTVGTITEVYDYLRLLYARAGTPHCPTCGERVARQTPQQIVDQVLAMPEGTRFLVLAPVVRTRKGEFADLFDKLNAQGYSRVRVDGVVHPLTDPPKLKKQEKHDIEVVVDRLTVKAAAKRRLTDSVETALNLADGIVVLEFVDHELGAPHREQRFSEKLACPNGHALAVDDLEPRSFSFNSPYGACPECSGLGIRKEVDPELVVPDPDRTLAQGAVAPWSNGHTAEYFTRMMAGLGEALGFDVDTPWRKLPAKARKAILEGADEQVHVRYRNRYGRTRSYYADFEGVLAFLQRKMSQTESEQMKERYEGFMRDVPCPVCAGTRLKPEILAVTLAGESKGEHGAKSIAEVCELSIADCADFLNALTLGPREQAIAGQVLKEIRSRLGFLLDVGLEYLSLSRAAATLSGGEAQRIRLATQIGSGLVGVLYVLDEPSIGLHQRDNRRLIETLTRLRDLGNTLIVVEHDEDTIEHADWIVDIGPGAGEHGGRIVHSGPYDELLRNKDSITGAYLSGRESIEIPAIRRSVDPRRQLTVVGAREHNLRGIDVSFPLGVLTSVTGVSGSGKSTLVNDILAAVLANRLNGARQVPGRHTRVTGLDYLDKLVRVDQSPIGRTPRSNPATYTGVFDKIRTLFAATTEAKVRGYQPGRFSFNVKGGRCEACTGDGTIKIEMNFLPDVYVPCEVCQGARYNRETLEVHYKGKTVSEVLDMSIEEAAEFFEPIAGVHRYLRTLVDVGLGYVRLGQPAPTLSGGEAQRVKLASELQKRSTGRTVYILDEPTTGLHFDDIRKLLNVINGLVDKGNTVIVIEHNLDVIKTSDWIIDLGPEGGAGGGTVVAQGTPEDVAAVPASYTGKFLAEVVGGGASAATSRSNRRRNVSA | not soluble
